# From patent publication US20150203577A1 (Chugai, published 2015)
# Substitutions are numbered along the chain they refer to.
# T1: mouse FcγRII extracellular domain, C-terminal His tag (mouse, UniProt P08101 30-210)
# T1 construct: Whole entry named; also called mFcγRII; mFcgRII
# T1 sequence: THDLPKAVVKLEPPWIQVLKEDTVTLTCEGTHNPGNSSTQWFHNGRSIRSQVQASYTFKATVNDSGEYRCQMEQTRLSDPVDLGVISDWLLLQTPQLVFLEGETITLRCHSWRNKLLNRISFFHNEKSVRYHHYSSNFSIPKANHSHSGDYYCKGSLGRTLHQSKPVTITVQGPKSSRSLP
# T2: mouse FcγRIII extracellular domain, C-terminal His tag (mouse, UniProt P08508 31-215)
# T2 construct: Whole entry named; also called mFcγRIII; mFcgRIII
# T2 chain: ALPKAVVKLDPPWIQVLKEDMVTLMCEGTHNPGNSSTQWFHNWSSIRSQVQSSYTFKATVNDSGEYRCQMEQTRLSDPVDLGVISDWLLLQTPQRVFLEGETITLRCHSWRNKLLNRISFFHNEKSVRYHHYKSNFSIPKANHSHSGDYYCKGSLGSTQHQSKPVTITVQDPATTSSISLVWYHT
# B1: H237-MB364/MRAL-k0 (antibody)
# heavy: QVQLQESGPGLVKPSETLSLTCAVSGHSISHDHAWSWVRQPPGEGLEWIGFISYSGITNYNPSLQGRVTISRDNSKNTLYLQMNSLRAEDTAVYYCARSLARTTAMDYWGEGTLVTVSSAKTTPPSVYPLAPGSAAQTNSMVTLGCLVKGYFPEPVTVTWNSGSLSSGVHTFPAVLQSDLYTLSSSVTVPSSTWPSETVTCNVAHPASSTKVDKKIVPRDCGCKPCICEAKEVEDVFIFPPKPKDVLTITLTPKVTCVVVDISKDDPEVQFSWFVDDVEVHTAQTQPREEQFNSTFRSVSELPIMHQDWLNGKEFKCRVNSAAFPAPIEKTISKTKGRPKAPQVYTIPPPKEQMAKDKVSLTCMITDFFPEDITVEWQWNGQPAENYKNTQPIMDTDGSYFVYSKLNVQKSNWEAGNTFTCSVLHEGLHNHHTEKSLSHSPGK
# light: not shown
# notes: copies: 2 + 2
# B2: H237-MB581/MRAL-k0 (antibody, mouse IgG1, kappa)
# heavy: B1 heavy with E229T, A230V, K231P, E234S, D235W, F237T
# light: not shown
# notes: copies: 2 + 2
# B3: H237-MB597/MRAL-k0 (antibody, mouse IgG1, kappa)
# heavy: B1 heavy with A230V, K231P, D235S, F237D
# light: not shown
# notes: copies: 2 + 2
# B4: H237-MB575/MRAL-k0 (antibody, mouse IgG1, kappa)
# heavy: B1 heavy with E229T, A230V, K231P, V233E, E234S, D235S, F237T
# light: not shown
# notes: copies: 2 + 2
# B5: H237-MB601/MRAL-k0 (antibody, mouse IgG1, kappa)
# heavy: B1 heavy with A230V, K231P, V233E, E234S, D235S, F237D
# light: not shown
# notes: copies: 2 + 2
# B6: H237-MB564/MRAL-k0 (antibody, mouse IgG1, kappa)
# heavy: B1 heavy with E229T, A230V, K231P, D235S, F237D
# light: not shown
# notes: copies: 2 + 2
# B7: H237-MB571/MRAL-k0 (antibody, mouse IgG1, kappa)
# heavy: B1 heavy with E229T, A230V, K231P, V233E, E234S, D235F
# light: not shown
# notes: copies: 2 + 2
# B8: H237-MB602/MRAL-k0 (antibody, mouse IgG1, kappa)
# heavy: B1 heavy with A230V, K231P, V233E, E234D, D235S
# light: not shown
# notes: copies: 2 + 2
# B9: H237-MB566/MRAL-k0 (antibody, mouse IgG1, kappa)
# heavy: B1 heavy with E229T, A230V, K231P, D235S, F237T
# light: not shown
# notes: copies: 2 + 2
# B10: H237-MB568/MRAL-k0 (antibody, mouse IgG1, kappa)
# heavy: B1 heavy with E229T, A230V, K231P, D235S, S294H
# light: not shown
# notes: copies: 2 + 2
# B11: H237-MB600/MRAL-k0 (antibody, mouse IgG1, kappa)
# heavy: B1 heavy with A230V, K231P, V233E, E234S, D235W
# light: not shown
# notes: copies: 2 + 2
# B12: H237-MB577/MRAL-k0 (antibody, mouse IgG1, kappa)
# heavy: B1 heavy with E229T, A230V, K231P, E234S, D235F, F237E
# light: not shown
# notes: copies: 2 + 2
# B13: H237-MB576/MRAL-k0 (antibody, mouse IgG1, kappa)
# heavy: B1 heavy with E229T, A230V, K231P, E234S, D235F, F237D
# light: not shown
# notes: copies: 2 + 2
# B14: H237-MB579/MRAL-k0 (antibody, mouse IgG1, kappa)
# heavy: B1 heavy with E229T, A230V, K231P, E234S, D235W, F237D
# light: not shown
# notes: copies: 2 + 2
# B15: H237-MB561/MRAL-k0 (antibody, mouse IgG1, kappa)
# heavy: B1 heavy with E229T, A230V, K231P, V233E, D235S
# light: not shown
# notes: copies: 2 + 2
# B16: H237-MB599/MRAL-k0 (antibody, mouse IgG1, kappa)
# heavy: B1 heavy with A230V, K231P, V233E, E234S, D235F
# light: not shown
# notes: copies: 2 + 2
# B17: H237-MB608/MRAL-k0 (antibody, mouse IgG1, kappa)
# heavy: B1 heavy with E229T, A230V, K231P, D235E, F237D
# light: not shown
# notes: copies: 2 + 2
# B18: H237-MB586/MRAL-k0 (antibody, mouse IgG1, kappa)
# heavy: B1 heavy with E229T, A230V, K231P, E234D, D235W
# light: not shown
# notes: copies: 2 + 2
# B19: H237-MB574/MRAL-k0 (antibody, mouse IgG1, kappa)
# heavy: B1 heavy with E229T, A230V, K231P, V233E, E234S, D235S, F237E
# light: not shown
# notes: copies: 2 + 2
# B20: H237-MB580/MRAL-k0 (antibody, mouse IgG1, kappa)
# heavy: B1 heavy with E229T, A230V, K231P, E234S, D235W, F237E
# light: not shown
# notes: copies: 2 + 2
# B21: H237-MB563/MRAL-k0 (antibody, mouse IgG1, kappa)
# heavy: B1 heavy with E229T, A230V, K231P, D235W
# light: not shown
# notes: copies: 2 + 2
# B22: H237-MB595/MRAL-k0 (antibody, mouse IgG1, kappa)
# heavy: B1 heavy with A230V, K231P, D235F
# light: not shown
# notes: copies: 2 + 2
# B23: H237-MB578/MRAL-k0 (antibody, mouse IgG1, kappa)
# heavy: B1 heavy with E229T, A230V, K231P, E234S, D235F, F237T
# light: not shown
# notes: copies: 2 + 2
# B24: H237-MB562/MRAL-k0 (antibody, mouse IgG1, kappa)
# heavy: B1 heavy with E229T, A230V, K231P, D235F
# light: not shown
# notes: copies: 2 + 2
# B25: H237-MB604/MRAL-k0 (antibody, mouse IgG1, kappa)
# heavy: B1 heavy with A230V, K231P, E234D, D235W
# light: not shown
# notes: copies: 2 + 2
# B26: H237-MB591/MRAL-k0 (antibody, mouse IgG1, kappa)
# heavy: B1 heavy with E229T, A230V, K231P, E234D, D235S, S294H
# light: not shown
# notes: copies: 2 + 2
# B27: H237-MB565/MRAL-k0 (antibody, mouse IgG1, kappa)
# heavy: B1 heavy with E229T, A230V, K231P, D235S, F237E
# light: not shown
# notes: copies: 2 + 2
# B28: H237-MB567/MRAL-k0 (antibody, mouse IgG1, kappa)
# heavy: B1 heavy with E229T, A230V, K231P, D235S, S263M
# light: not shown
# notes: copies: 2 + 2
# B29: H237-MB589/MRAL-k0 (antibody, mouse IgG1, kappa)
# heavy: B1 heavy with E229T, A230V, K231P, E234D, D235S, F237T
# light: not shown
# notes: copies: 2 + 2
# B30: H237-MB603/MRAL-k0 (antibody, mouse IgG1, kappa)
# heavy: B1 heavy with A230V, K231P, E234D, D235F
# light: not shown
# notes: copies: 2 + 2
# B31: H237-MB572/MRAL-k0 (antibody, mouse IgG1, kappa)
# heavy: B1 heavy with E229T, A230V, K231P, V233E, E234S, D235W
# light: not shown
# notes: copies: 2 + 2
# B32: H237-MB585/MRAL-k0 (antibody, mouse IgG1, kappa)
# heavy: B1 heavy with E229T, A230V, K231P, E234D, D235F
# light: not shown
# notes: copies: 2 + 2
# B33: H237-MB605/MRAL-k0 (antibody, mouse IgG1, kappa)
# heavy: B1 heavy with A230V, K231P, E234D, D235S, F237D
# light: not shown
# notes: copies: 2 + 2
# B34: H237-MB587/MRAL-k0 (antibody, mouse IgG1, kappa)
# heavy: B1 heavy with E229T, A230V, K231P, E234D, D235S, F237D
# light: not shown
# notes: copies: 2 + 2
# B35: H237-MB596/MRAL-k0 (antibody, mouse IgG1, kappa)
# heavy: B1 heavy with A230V, K231P, D235W
# light: not shown
# notes: copies: 2 + 2
# B36: H237-MB607/MRAL-k0 (antibody, mouse IgG1, kappa)
# heavy: B1 heavy with E229T, A230V, K231P, V233E, D235E
# light: not shown
# notes: copies: 2 + 2
# B37: H237-MB598/MRAL-k0 (antibody, mouse IgG1, kappa)
# heavy: B1 heavy with A230V, K231P, D235S, S263M
# light: not shown
# notes: copies: 2 + 2
# B38: H237-MB584/MRAL-k0 (antibody, mouse IgG1, kappa)
# heavy: B1 heavy with E229T, A230V, K231P, V233E, E234D, D235S
# light: not shown
# notes: copies: 2 + 2
# B39: H237-MB573/MRAL-k0 (antibody, mouse IgG1, kappa)
# heavy: B1 heavy with E229T, A230V, K231P, V233E, E234S, D235S, F237D
# light: not shown
# notes: copies: 2 + 2
# B40: H237-MB588/MRAL-k0 (antibody, mouse IgG1, kappa)
# heavy: B1 heavy with E229T, A230V, K231P, E234D, D235S, F237E
# light: not shown
# notes: copies: 2 + 2
# Molecular target: T1, mouse FcγRII extracellular domain, …
# Assay: SPR (Biacore T200); KD of H237-mIgG1/MRAL-k0 / KD of variant
row,Binder,relative mFcγRII-binding activity (mIgG1 = 1) [fold]
1,B1,6.55
2,B2,0.69
3,B3,1.28
4,B4,0.08
5,B5,0.55
6,B6,0.32
7,B7,0.22
8,B8,0.26
9,B9,0.18
10,B10,0.71
11,B11,1.24
12,B12,2.51
13,B13,1.54
14,B14,0.89
15,B15,0.48
16,B16,0.7
17,B17,0.42
18,B18,0.13
19,B19,0.27
20,B20,1.38

row,Binder,relative mFcγRII-binding activity (mIgG1 = 1) [fold]
1,B21,0.2
2,B22,0.09
3,B23,0.39
4,B24,0.05
5,B25,0.34
6,B26,0.08
7,B27,0.66
8,B28,0.21
9,B29,0.23
10,B30,0.12
11,B31,0.26
12,B32,0.06
13,B33,9.85
14,B34,1.33
15,B35,0.55
16,B36,3.14
17,B37,0.41
18,B38,0.08
19,B39,0.43
20,B40,2.01

# Molecular target: T2, mouse FcγRIII extracellular domain, …
# Assay: as above
row,Binder,relative mFcγRIII-binding activity (mIgG1 = 1) [fold]
1,B1,1.35
2,B2,0.42
3,B3,0.54
4,B4,0.05
5,B5,0.1
6,B6,0.11
7,B7,0.05
8,B8,0.05
9,B9,0.1
10,B10,0.18
11,B11,0.25
12,B12,1.19
13,B13,0.6
14,B14,0.34
15,B15,0.07
16,B16,0.11
17,B17,0.13
18,B18,0.08
19,B19,0.1
20,B20,0.61

row,Binder,relative mFcγRIII-binding activity (mIgG1 = 1) [fold]
1,B21,0.08
2,B22,0.05
3,B23,0.25
4,B24,0.02
5,B25,0.16
6,B26,0.02
7,B27,0.23
8,B28,0.07
9,B29,0.19
10,B30,0.06
11,B31,0.07
12,B32,0.03
13,B33,4.4
14,B34,0.6
15,B35,0.17
16,B36,0.18
17,B37,0.08
18,B38,0.02
19,B39,0.06
20,B40,1.01
